Measurements: patent US20260167714A1 (COHERUS BIOSCIENCES, published 2026)

Legend:
[1] = biological target: T1, human ILT4 expressed on cells (human, UniProt Q8N423 22-597); assay: cell-based or functional assay
[2] = biological target: T1, human ILT4 expressed on cells; assay: flow based HLA-G blocking assay
[3] = biological target: T2, recombinant human ILT4 (LILRB2) (human, UniProt Q8N423 22-460); assay: SPR, high resolution kinetics; reference Hz156
T2 construct: Bought protein (Acro Biosystems or R&D Systems); also called ILTR4

[4] = biological target: T2, recombinant human ILT4 (LILRB2); assay: KinExA, solution equilibrium, n-curve analysis
Procedure: Kinetic Exclusion Assay (KinExA®) was performed to measure the equilibrium binding affinity and kinetics between human ILT4 and four humanized LALA-Fc modified antibodies in solution. For affinity analysis, the equilibrium dissociation constant, KD, was experimentally determined and reflects the strength of the binding interaction. The rate of association, kₒₙ, was also experimentally determined, while the rate of dissociation, koff, is calculated based on the following equation: koff=KD×kₒₙ
The binding affinity (KD), association (kₒₙ), and dissociation rate constants (koff) were measured for 4 different Humanized LALA IgG antibodies to ILT4 using KinExA. An n-curve analysis of at least two different curves, run at two different CBP concentrations, was used to determine the KD of the interactions The ILT4 was used as the concentration reference for all curves. All of the binding systems have low error and well defined 95% confidence intervals giving confidence to the measurements: […]

LILRA6 = biological target: T3, LILRA6 (human, UniProt Q6PI73 24-447); assay: SPR, Biacore 8K, mAb captured on anti-human Fc, analyte injected
T3 construct: Bought protein; limits of the extracellular domain are marked by bold type not visible here; whole entry named; also called recombinant human LILRA6
Summary of the method: (§1)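 Antibody captured on an anti-human Fc surface, CM4 chip, HBS-P+ with 100 μg/mL BSA. LILRB2 and nine LILRA/LILRB family members injected at 100 nM, 30 μL/min, 90 s association, 240 s dissociation. Sensorgrams double-referenced.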

LILRB1 = biological target: T4, LILRB1 (human, UniProt Q8NHL6 24-461); assay: as above
T4 construct: Bought protein; limits of the extracellular domain are marked by bold type not visible here; whole entry named; also called recombinant human LILRB1; ILT2
Summary of the method: as §1

LILRB3 = biological target: T5, LILRB3 (human, UniProt O75022 24-443); assay: as above
T5 construct: Bought protein; limits of the extracellular domain are marked by bold type not visible here; whole entry named; also called recombinant human LILRB3; ILT5
Summary of the method: as §1

[5] = biological target: T1, human ILT4 expressed on cells; assay: flow cytometry, blockade of PE-HLA-G tetramer binding to ILT4-CHO cells, Experiment 2
[6] = biological target: T1, human ILT4 expressed on cells; assay: flow cytometry on ILT4-CHO cells, unlabelled mAb titrated; competitor AF647-Hz45.01-LALA
Procedure: Competition binding assays were performed. […] Binding activities were measured by flow cytometry.
Anti-human ILT4 mAbs at various concentrations (0-15 μg/ml) were incubated with ILT4-CHO cells. Cells were washed and stained with AF647-Hz45.01-LALA. Cells were analyzed by flow cytometry.

[7] = biological target: T2, recombinant human ILT4 (LILRB2); assay: SPR, Biacore 8K, mAb captured on anti-human Fc, LILRB2 at 100 nM; legend: +++ binding (1-2 nM KD)
Procedure: (§2) SPR was used to determine the specificity of four humanized anti-ILT4 mAbs for binding to LILRB2 and to determine any cross-reactivity with nine other LILRA and LILRB family members. LILR proteins were purchased from Acro Biosystems or R&D Systems, with sequence provided below. The studies were performed with a Biacore 8K instrument using a CM4 sensor chip with a running buffer of HBS-P+, 100 μg/mL BSA. Anti-human Fc specific capture surfaces were prepared using standard amine coupling chemistry. MAb was captured to flow cell 2 with flow cell 1 serving as the reference flow cell. Each of the nine family members and LILRB2 were injected at 100 nM at 30 μL/min for 90 sec with 240 sec of dissociation. […] All sensorgrams were doubled-referenced during processing of the data.

[8] = biological target: T1, human ILT4 expressed on cells; assay: flow cytometry, blockade of PE-HLA-A tetramer (5 ug/ml) binding to ILT4-CHO cells, Experiment 1 (table title prints HLA-G)
[9] = biological target: T2, recombinant human ILT4 (LILRB2); assay: SPR, Biacore T200, medium resolution; koff held at its limit of 4.27e-5 s^-1
Summary of the method: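 Mouse, chimeric or humanized mAbs captured on anti-Fc surfaces (CM4 chip); ILT4 injected at 101 to 0.79 nM, 2-fold series, 90 s association, 1200 s dissociation. Run at 25° C in HBS-P+ pH 7.4 with 100 μg/ml BSA; double-referenced global 1:1 fit with mass-transport term, KD=koff/kon.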

[10] = biological target: T2, recombinant human ILT4 (LILRB2); assay: SPR, Biacore 8K, mAb captured on anti-human Fc, LILRB2 at 100 nM; legend: ++++ tight binding (<100 pM KD)
Procedure: as §2

T1 sequence (Q8N423 22-597): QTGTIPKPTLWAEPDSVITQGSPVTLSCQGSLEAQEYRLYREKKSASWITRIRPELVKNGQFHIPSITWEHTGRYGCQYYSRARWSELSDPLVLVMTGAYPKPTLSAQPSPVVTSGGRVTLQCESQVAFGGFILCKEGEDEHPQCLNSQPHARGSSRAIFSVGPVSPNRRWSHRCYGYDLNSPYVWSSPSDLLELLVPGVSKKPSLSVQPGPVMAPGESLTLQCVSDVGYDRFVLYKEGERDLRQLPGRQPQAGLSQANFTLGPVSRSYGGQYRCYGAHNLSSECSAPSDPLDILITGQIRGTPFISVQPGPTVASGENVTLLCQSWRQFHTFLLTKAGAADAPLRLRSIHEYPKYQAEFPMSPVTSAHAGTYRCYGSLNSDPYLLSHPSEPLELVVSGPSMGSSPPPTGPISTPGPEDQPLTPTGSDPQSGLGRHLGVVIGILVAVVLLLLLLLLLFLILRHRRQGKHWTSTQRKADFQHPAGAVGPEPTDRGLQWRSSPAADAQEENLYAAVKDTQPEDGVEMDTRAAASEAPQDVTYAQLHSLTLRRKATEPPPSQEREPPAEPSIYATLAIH
T2 sequence (Q8N423 other isoform, or with tags, fused parts or gaps limits assumed): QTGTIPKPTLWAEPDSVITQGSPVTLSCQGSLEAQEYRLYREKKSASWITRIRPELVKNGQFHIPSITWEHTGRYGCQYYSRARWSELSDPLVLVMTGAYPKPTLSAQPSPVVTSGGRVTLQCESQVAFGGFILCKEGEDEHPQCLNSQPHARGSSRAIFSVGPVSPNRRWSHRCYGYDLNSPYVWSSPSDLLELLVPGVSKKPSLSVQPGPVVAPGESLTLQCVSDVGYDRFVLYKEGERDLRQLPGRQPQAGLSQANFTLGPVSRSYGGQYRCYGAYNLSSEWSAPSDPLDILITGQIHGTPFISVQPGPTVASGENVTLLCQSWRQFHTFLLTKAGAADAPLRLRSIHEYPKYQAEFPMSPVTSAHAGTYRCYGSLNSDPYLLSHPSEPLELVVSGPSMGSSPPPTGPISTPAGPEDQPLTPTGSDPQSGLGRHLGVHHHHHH
T5 sequence (O75022 other isoform, or with tags, fused parts or gaps): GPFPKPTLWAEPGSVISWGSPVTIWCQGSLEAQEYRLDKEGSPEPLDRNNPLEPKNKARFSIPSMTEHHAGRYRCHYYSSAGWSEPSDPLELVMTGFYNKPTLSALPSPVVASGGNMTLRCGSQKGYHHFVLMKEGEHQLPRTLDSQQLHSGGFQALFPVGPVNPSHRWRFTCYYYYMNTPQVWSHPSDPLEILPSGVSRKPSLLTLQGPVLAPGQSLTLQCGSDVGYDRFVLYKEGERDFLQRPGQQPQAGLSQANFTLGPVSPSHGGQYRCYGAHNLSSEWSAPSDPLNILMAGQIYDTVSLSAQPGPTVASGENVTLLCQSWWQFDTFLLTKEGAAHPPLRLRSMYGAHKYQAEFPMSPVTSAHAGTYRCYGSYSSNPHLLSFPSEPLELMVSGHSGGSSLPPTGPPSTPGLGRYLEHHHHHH
T4 sequence (Q8NHL6 other isoform, or with tags, fused parts or gaps): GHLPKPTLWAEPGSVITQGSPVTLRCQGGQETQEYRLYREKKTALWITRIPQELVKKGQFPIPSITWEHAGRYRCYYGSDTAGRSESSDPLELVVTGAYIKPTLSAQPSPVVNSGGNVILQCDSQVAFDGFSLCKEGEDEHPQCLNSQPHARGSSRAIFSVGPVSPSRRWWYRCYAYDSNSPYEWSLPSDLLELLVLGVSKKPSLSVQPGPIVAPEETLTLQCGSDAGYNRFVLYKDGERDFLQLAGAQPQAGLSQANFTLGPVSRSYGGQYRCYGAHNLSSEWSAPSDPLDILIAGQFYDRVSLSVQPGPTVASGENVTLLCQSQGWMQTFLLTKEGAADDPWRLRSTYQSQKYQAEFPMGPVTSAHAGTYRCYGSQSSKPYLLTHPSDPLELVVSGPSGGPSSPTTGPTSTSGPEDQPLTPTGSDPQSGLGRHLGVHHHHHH
T3 sequence (Q6PI73 other isoform, or with tags, fused parts or gaps): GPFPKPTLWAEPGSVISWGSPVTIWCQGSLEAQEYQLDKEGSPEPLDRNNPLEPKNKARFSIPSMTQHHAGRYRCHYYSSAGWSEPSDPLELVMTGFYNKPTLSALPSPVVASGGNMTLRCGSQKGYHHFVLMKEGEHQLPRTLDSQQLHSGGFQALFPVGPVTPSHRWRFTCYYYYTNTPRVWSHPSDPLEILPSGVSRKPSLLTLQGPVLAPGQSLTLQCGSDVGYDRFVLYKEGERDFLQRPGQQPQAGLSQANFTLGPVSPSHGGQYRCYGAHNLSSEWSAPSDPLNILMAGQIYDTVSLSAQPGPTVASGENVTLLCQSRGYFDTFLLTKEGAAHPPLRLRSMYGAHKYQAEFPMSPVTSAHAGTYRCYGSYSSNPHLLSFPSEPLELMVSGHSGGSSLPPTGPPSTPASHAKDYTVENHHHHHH

Binder	EC50 value of IL-6 production, donor 4 [1] [µg/mL]	EC50 value of IL-6 production, donor 5 [1] [µg/mL]	IC50 [2] [µg/mL]	fold faster off-rate than Hz156 [3] [fold]	Kd [4] [nM]	binding result (LILRA6)	binding result (LILRB1)	binding result (LILRB3)	IC50 [5] [µg/mL]	IC50 [6] [µg/mL]	KD [7] [nM]	IC50 [8] [µg/mL]	Kd [9] [nM]	koff [9] [s⁻¹]	KD [10] [nM]
Hz45.01-LALA (antibody, human IgG1, kappa, L234A L235A, V domains shown, Humanized L45S4, human IgG1 L234A/L235A, kappa; also called Humanized 45_01; Hu IgG 45_01 LALA) VH: QVQLVQSGAEVKKPGASVKVSCKASGYTFTDYYMNWVRQAPGQRLEWIGDINPNNGGTSYNQKFKGRATITVDTSASTAYMELSSLRSEDTAVYYCARGGAELTGTYWYFDVWGQGTTVTVSS VL: DIQMTQSPSSLSASVGDRVTITCRASENIYSNLAWYQQKPGKAPKVLVYGATNLADGVPSRFSGSGSGTEYTLTISSLQPEDFATYYCQHFWDSPFTFGGGTKVEIKR	0.00603	0.0159	0.092	29	0.0851	no binding (tested: 100 nM)	no binding (tested: 100 nM)	no binding (tested: 100 nM)	0.119	0.31	1 to 2	0.106			
Hz156.03-LALA (antibody, human IgG1, kappa, L234A L235A, V domains shown, Humanized L156S3, human IgG1 L234A/L235A, kappa) VH: QVQLVQSGAEVKKPGSSVKVSCKASGYTFTDYYMNWVRQAPGQGLEWIARIYPGVYRTHYNEKFKDRVTLTADKSTSTAYMELSSLRSEDTAVYYCARSGYYGGTYEEDAMDYWGQGTTVTVSS VL: DIQMTQSPSSLSASVGDRVTITCRASENIYSNLAWYQQKPGKAPKLLVYAATSLADGVPSRFSGSGSGTDYTLTISSLQPEDFATYYCQNFWDTPYTFGQGTKVEIKR	0.0082	0.0213	0.212		0.00916	no binding (tested: 100 nM)	no binding (tested: 100 nM)	no binding (tested: 100 nM)	0.14	0.245		0.149	≤ 0.086	≤ 4.27e-05	< 0.1
